Blank lines part the entries; values can stand above or below the binder they belong to.
What was measured:
[1] = biological target: T1, human CD27 on human T cells (human, UniProt P26842 21-260); test: cell-based or functional assay
T1 sequence: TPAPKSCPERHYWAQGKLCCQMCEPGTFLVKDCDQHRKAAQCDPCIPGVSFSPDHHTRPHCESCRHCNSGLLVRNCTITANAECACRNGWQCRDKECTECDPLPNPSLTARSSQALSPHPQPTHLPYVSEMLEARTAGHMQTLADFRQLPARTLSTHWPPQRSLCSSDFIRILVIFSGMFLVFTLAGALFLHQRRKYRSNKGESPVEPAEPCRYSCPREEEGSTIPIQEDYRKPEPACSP

[2] = biological target: T1, human CD27 on human T cells; test: flow cytometry on human T cells, FIG. 1A
[3] = biological target: T2, cynomolgus CD27 on cynomolgus T cells (cynomolgus monkey); test: flow cytometry on cynomolgus T cells, FIG. 1B
T2 construct: whole, on cells; also called cCD27

[4] = biological target: T1, human CD27 on human T cells; test: blocking assay by flow cytometry: human T cells with antibody in the presence of 10 µg/ml soluble human CD70; blocked ligand CD70 detected with labelled anti-CD70
Excerpt: Binding of the Abs in the assay was detected by a labeled anti-human IgG Ab (*, ahIgG). […] Binding of the ligand blocking 1F5 Ab was not detected. […] CD70 was detected by a labeled anti-CD70 Ab (*, aCD70). […] Binding of CD70 decreased with increasing concentrations of the ligand blocking 1F5 Ab. “MFI,” “hIgG1,” and “FL2” are as described for FIG. 1. “FL1” in (B) indicates measurement in fluorescence channel 1 (FL1).
The presence or absence of binding of the Abs was detected using a labeled anti-human IgG Ab. […] See FIG. 2A, showing a schematic of the assay, and FIG. 2B, showing a graph of the results. Binding of the ligand blocking 1F5 Ab was not detected. Id. […] CD70 was detected by a labeled anti-CD70 Ab.

[5] = biological target: T2, cynomolgus CD27 on cynomolgus T cells; test: binding to cynomolgus T cells
[6] = biological target: T1, human CD27 on human T cells; test: flow cytometry on human T cells, n=5; mean of n=5
[7] = biological target: T1, human CD27 on human T cells; test: flow cytometry on human T cells, n=5; lowest of the n=5 determinations
[8] = biological target: T1, human CD27 on human T cells; test: flow cytometry on human T cells, n=5; highest of the n=5 determinations
[9] = biological target: T2, cynomolgus CD27 on cynomolgus T cells; test: estimated in vivo serum EC50 for 50% CD27 receptor occupancy in monkey whole blood, Emax model
Excerpt: Criteria for evaluation included clinical observations, hematology, PK, CD27 receptor occupancy (RO), circulating sCD27 levels, lymphocyte subset analysis, cytokine levels, and ADA determination. Blood samples were obtained prior to dosing and at various intervals up to 42 days post-dose. Overall, there were no adverse findings, including no adverse clinical observations and no changes in hematologic parameters. There were time- and dose-dependent increases in circulating sCD27 levels. […] There were no significant changes in circulating lymphocyte subsets including CD4⁺, Treg (Foxp3⁺/CD4⁺), CD8⁺ T, CD20⁺ B, and NK cells, or circulating cytokine levels.

[10] = biological target: T3, human CD27 (hCD27), form in the assay not stated (human, UniProt P26842 20-260, limits assumed); test: Scatchard analysis; format not stated; Scatchard analysis, not SPR; antibody, format not stated
T3 construct: Whole entry named
T3 sequence: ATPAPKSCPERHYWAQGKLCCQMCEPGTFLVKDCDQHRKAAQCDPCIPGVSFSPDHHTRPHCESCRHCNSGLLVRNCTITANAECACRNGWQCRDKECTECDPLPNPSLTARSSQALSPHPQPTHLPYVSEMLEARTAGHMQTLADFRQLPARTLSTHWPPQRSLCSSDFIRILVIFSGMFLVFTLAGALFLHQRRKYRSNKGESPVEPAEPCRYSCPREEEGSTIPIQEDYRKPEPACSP

[11] = biological target: T1, human CD27 on human T cells; test: flow cytometry on human T cells pretreated with 10 µg/ml human CD70; bound antibody detected with labelled anti-human IgG
[12] = biological target: T4, hCD27-mouseFc or hCD27-Histag proteins (human, UniProt P26842 20-191); test: SPR; due to an increased dissociation rate, association rate unchanged
T4 construct: not shown: mouse Fc or His tag
T4 sequence: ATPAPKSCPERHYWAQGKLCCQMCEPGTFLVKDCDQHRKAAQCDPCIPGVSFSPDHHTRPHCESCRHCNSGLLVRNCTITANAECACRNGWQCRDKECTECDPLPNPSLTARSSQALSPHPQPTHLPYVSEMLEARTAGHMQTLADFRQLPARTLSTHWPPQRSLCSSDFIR
Experimental: (§1) The measured values were 41-44 nM at 37° C. and 13-16 nM at 25° C. […] The kinetic analysis used a 1:1 fit binding model.

[13] = biological target: T4, hCD27-mouseFc or hCD27-Histag proteins; test: SPR at 25 C, Fab with hCD27-mouseFc or hCD27-Histag, 1:1 fit binding model; 25 C; lower end of the measured values
Experimental: as §1

[14] = biological target: T4, hCD27-mouseFc or hCD27-Histag proteins; test: SPR at 37 C, Fab with hCD27-mouseFc or hCD27-Histag, 1:1 fit binding model; 37 C; lower end of the measured values
Experimental: as §1

IFN-γ production of CD4+CD45RO+ memory T cells, CHO-svCD3-CD32a co-culture (EC50) [1]: 0.089 nM
IFN-γ secretion in FIG. 6(B), CHO-svCD3-CD32a co-culture (EC50) [1]: 0.0402 nM
T cell proliferation in FIG. 6(A), CHO-svCD3-CD32a co-culture (EC50) [1]: 0.0357 nM
proliferation of CD4+CD45RO+ memory T cells, CHO-svCD3-CD32a co-culture (EC50) [1]: 0.073 nM
EC50 [2]: 1.09 nM
EC50 [3]: 1.8 nM
IC50 (read off the curve) [4]: ~1 nM
B1: Reference HuMAb 1F5 (human anti-hCD27 mAb, ligand blocking) (antibody, human IgG1, kappa, V domains shown)
VH: QVQLVESGGGVVQPGRSLRLSCAASGFTFSSYDMHWVRQAPGKGLEWVAVIWYDGSNKYYADSVKGRFTISRDNSKNTLYLQMNSLRAEDTAVYYCARGSGNWGFFDYWGQGTLVTVSS
VL: DIQMTQSPSSLSASVGDRVTITCRASQGISRWLAWYQQKPEKAPKSLIYAASSLQSGVPSRFSGSGSGTDFTLTISSLQPEDFATYYCQQYNTYPRTFGQGTKVEIKR
notes: also called 1F5-IgG1

IFN-γ production of CD4+CD45RO+ memory T cells, CHO-svCD3-CD32a co-culture (EC50) [1]: 0.015 nM
IFN-γ secretion in FIG. 6(B), CHO-svCD3-CD32a co-culture (EC50) [1]: 0.00624 nM
IFN-γ secretion, CHO-svCD3-CD32a co-culture (mean EC50) [1]: 0.0078 nM
IL-2 release from SEB-stimulated PBMCs, with PD-1 blockade against without [1]: 2 fold
T cell proliferation in FIG. 6(A), CHO-svCD3-CD32a co-culture (EC50) [1]: 0.0045 nM
T cell proliferation, CHO-svCD3-CD32a co-culture (mean EC50) [1]: 0.009 nM
induction of IFN-γ secretion from CD4+CD25- T cells co-cultured with B cells, 100 ng/ml SEB, antibody at 10 µg/ml [1]: > 2.5 fold
proliferation of CD4+CD45RO+ memory T cells, CHO-svCD3-CD32a co-culture (EC50) [1]: 0.005 nM
EC50 [5]: ~5 ng/mL
EC50 [2]: 0.0221 nM
EC50 [3]: 0.092 nM
EC50 [6]: 0.044 nM
EC50 [7]: 0.022 to 0.076 nM
EC50 [8]: 0.022 to 0.076 nM
EC50 [9]: 0.08 nM
Kd [10]: 0.045 nM
EC50 (read off the curve) [11]: ~0.1 nM
B2: HuMAb BMS-986215 (human IgG1 anti-human CD27 monoclonal antibody) (antibody, V domains shown)
VH: QVQLVQSGSEVKKPGASVKVSCKASGYTFTTYAMNWVRQAPGQGLEWMGWINTNTGNPTYAQGFTGRFVFSLDTSVNTAYLQISSLKAEDTAVYYCARDFGGFDYWGQGTLVTVSS
VL: AIQLTQSPSSLSASVGDRVTITCRASQGISSALAWYQQKPGKAPKLLINDASSLESGVPSRFSGSGSGTDFTLTISSLQPEDFATYYCQQFNNYPRTFGQGTKVEIKR
modifications: N-terminal glutamine to pyroglutamate; N-glycan at N297 (Table 4)
notes: Full-length human IgG1 produced in CHO cells; derived from clone 16D9

fold loss of affinity from 25° C. to 37° C. [12]: 3 fold
Kd [13]: 13 to 16 nM
Kd [14]: 41 to 44 nM
B3: Fab fragment of BMS-986215 (Fab, V domains shown)
VH: B2 VH
VL: AIQLTQSPSSLSASVGDRVTITCRASQGISSALAWYQQKPGKAPKLLINDASSLESGVPSRFSGSGSGTDFTLTISSLQPEDFATYYCQQFNNYPRTFGQGTKVEIK
